Consider 7 molecules from US20210188980A1.

One may read the EC50 as the concentration needed to bring the measured effect to its halfway point.

To fix the notation:
B1: mAb750 (antibody, V domains shown)
VH: EVQLQQSGAELVRPGASVKLSCTPSGLNIKDDYIHWVKQRPEQGLEWIGWIDPENGDTEYASKFQGKATITADTSSNTAYLQLSSLTSEDSAVYYCCTADYRNWYWGQGTTLTVSS
VL: not shown
B2: mAb746 (antibody, V domains shown)
VH: EVQLQQSGAELVRPGASVKLSCTASDFNIKDDYMHWVKQRPEQGLDWIGWIVPENGNTEYASKFQGKATITADTSSNTAYLQLSSLTSEDTAVYYCTVYGDYWGQGTTLTVSS
VL: DIQMTQSPSSLSASLGERVSLNCRASQEISGYLSWLQQKSDGTIKRLIYAASTLDSGVPKRFSGSRSGSDYSLTISSLESEDFADYYCLQYASYPLTFGAGTKLELK
B3: mAb747 (antibody, V domains shown)
VH: EVQLQQSGAELVRPGASVKLSCTASDFNIKDDYMHWVKQRPEQGLDWIGWIVPENGNTEYASKFQGKATITADTSSNTAYLQLSSLTSEDTAVYYCTVYGDYWGQGTTLTVSS
VL: DIQMTQSPSSLSASLGERVSLNCRASQEISGYLSWLQQKPDGTIKRLIYAASTLDSGVPKRFSGSRSGSDYSLTISSLESEDFAAYYCLQYASYPLTFGAGTKLELK
B4: mAb748 (antibody, V domains shown)
VH: EVQMQQSGAELVRPGASVKLSCTVSGFNIKDDYMHWVKQRPEQGLEWIGWIDPENGDTEYASKFQGKATITADTSSNTAYLQLNSLTSEDTAVYYCTYFDYWGQGTTLTVSS
VL: not shown
B5: mAb749 (antibody, V domains shown)
VH: EVQLQQSGAELVRPGASVKVSCTASDFNIKDDYVHWVKQRPEQGLEWIGWIDPENGDTEYASKFQGKATITADTSSNTAYLQLSSLTSEDTAVYFCSTWDAEENYWGQGTTLSVSS
VL: DIVLTQAAPSVPVTPGESVSISCRSSKSLLHSNGNTYLYWFLQRPGQSPQVLIYRMSNLASGVPVRFSGSGSGTAFTLRISRVEAEDVGVYYCMQHLEYPFTFGSGTKLEIK
B6: mAb742 (antibody, V domains shown)
VH: QGQLQQSGAELVRPGASVTLSCKASGYTFNDYEMHWVKQTPVHGLEWIGAIDPETGGTAYNQKFKGKAILTADKSSSTAYMELRSLTSEDSAVYYCIRWGSTVFPYWGQGTLVTVS
VL: DGVLTQTPLSLPVNIGDQASISCKSTKSLLNSDGFTYLDWYLQKPGQSPQLLIYLVSNRFSGVPDRFSGSGSGTDFTLKISRVEAEDLGVYYCFQSNYLPWTFGGGTKLEIK
B7: mAb744 (antibody, V domains shown)
VH: QVQLQQSGAELVRPGTSVTLSCKASGYTFTDYEMHWMKQTPVHGLEWIGAIDPATGGTAYNQKFKGKAILTADKSSSTAYMDFRSLTSEDSAVYYCIRWGTTVFPYWGQGTLVTVS
VL: DVVLTQTPLSLPVNIGDQASISCKSTKSLLNSDGFTYLDWYLQKPGQSPQLLIYLVSNRFSGVPDRFSGSGSGTDFTLKISRVEAEDLGVYYCFQSNYLPWTFGGGTKLEIK

For this assay, the target named is cynomolgus LAG-3 ECD/Fc fusion protein (cynomolgus monkey). Kind of assay: ELISA, coated cynoLAG-3 ECD/Fc. (In an ELISA, binding on a coated surface is turned into a signal by an enzyme label.)
Sequence of cynomolgus LAG-3 ECD/Fc fusion protein (cynomolgus monkey) (chain, as listed by the source limits assumed, form in doubt): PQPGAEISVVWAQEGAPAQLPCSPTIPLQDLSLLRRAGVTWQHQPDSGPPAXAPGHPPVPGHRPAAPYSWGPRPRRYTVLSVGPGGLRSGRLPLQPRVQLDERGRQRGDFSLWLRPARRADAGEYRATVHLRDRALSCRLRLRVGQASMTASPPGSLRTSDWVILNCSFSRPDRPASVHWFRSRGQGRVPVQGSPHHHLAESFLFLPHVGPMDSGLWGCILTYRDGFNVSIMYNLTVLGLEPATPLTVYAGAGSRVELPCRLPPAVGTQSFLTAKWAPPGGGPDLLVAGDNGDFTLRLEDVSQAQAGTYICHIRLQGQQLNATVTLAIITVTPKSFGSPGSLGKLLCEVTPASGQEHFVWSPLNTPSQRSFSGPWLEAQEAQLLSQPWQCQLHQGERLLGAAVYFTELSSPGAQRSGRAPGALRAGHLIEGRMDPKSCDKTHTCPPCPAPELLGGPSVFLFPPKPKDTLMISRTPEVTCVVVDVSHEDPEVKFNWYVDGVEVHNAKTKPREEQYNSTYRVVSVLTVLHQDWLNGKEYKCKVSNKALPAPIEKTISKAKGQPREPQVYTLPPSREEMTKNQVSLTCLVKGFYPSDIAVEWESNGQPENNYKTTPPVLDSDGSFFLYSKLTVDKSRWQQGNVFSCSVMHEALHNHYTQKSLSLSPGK
B1 registered an EC50 of 0.32 nM.

Take B2: the EC50 was 0.21 nM.

The molecule B3 yielded an EC50 of 0.34 nM.

In turn, B4 came in with an EC50 of 0.25 nM.

B5 showed a 50% effective concentration (EC50) of 0.33 nM.

B6 yielded a half-maximal effective concentration (EC50) of 0.32 nM.

Take B7: the EC50 came out at 0.21 nM.
